# Measured values as given in patent publication US9738880B2, “Lysosomal protein targeting sequence and therapeutic applications of same” (Children's Hospital Medical Center, priority 2013, dated 2017).
# Entries after “also recorded” stand apart in the source; their conditions may differ.
# Assays:
# [1] = molecular target: T1, ldLIMP2 (Homo sapiens, UniProt Q14108); assay: Immunoprecipitation of alanine substituted GCases (TKD sequence) with ldLIMP2; type: binding; settings: GCase:LIMP2 1:1, immunoblot, FIG. 6
# T1 construct: Purified luminal domain LIMP-2 (1d-LIMP2) was custom made (Sino Biological Inc., PRC.); purchased Sino Biological Inc
# T1 sequence (Q14108 28-433 limits assumed): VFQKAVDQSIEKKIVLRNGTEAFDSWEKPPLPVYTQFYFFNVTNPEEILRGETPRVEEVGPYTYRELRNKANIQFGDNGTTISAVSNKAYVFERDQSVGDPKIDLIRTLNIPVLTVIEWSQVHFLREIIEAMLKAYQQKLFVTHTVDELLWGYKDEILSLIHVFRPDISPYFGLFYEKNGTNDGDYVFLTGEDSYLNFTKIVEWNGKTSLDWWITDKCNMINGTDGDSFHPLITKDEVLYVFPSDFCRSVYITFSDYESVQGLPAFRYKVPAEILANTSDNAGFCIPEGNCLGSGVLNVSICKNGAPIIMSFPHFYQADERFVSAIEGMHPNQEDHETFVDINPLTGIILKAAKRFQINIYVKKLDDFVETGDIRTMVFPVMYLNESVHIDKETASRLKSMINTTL
# Text: FIG. 6A-6E: Immunoprecipitation of the alanine substituted GCases in the TKD sequence with ldLIMP2. In panels shown in FIG. 6A to FIG. 6D, the lanes 1 through 6 correspond to the band densities indicated by the bars in FIG. 6E. […] The quantitative results are shown in (FIG. 6E) in which 1, 2, 3, and 4 correspond to WT, AAA, AKA, and AKD, respectively.
# Immunoprecipitation of GCases with mutations in the TKD sequence: For immunoblots, Gba1 knockout mouse fibroblasts (null/null) were transfected with the GBA1 constructs (WT or mutants) and expressed for 5 days. The GCases from harvested cell lysates were purified using a GCase antibody affinity column (Dynabeads protein G crosslinked (BS3) with rabbit anti-human GCase antibody). The purified GCases were then mixed with LIMP2 (1:1), incubated (30 min.), and applied to another affinity column (Dynabeads protein G crosslinked (BS3) with rabbit anti-LIMP2 antibody). Aliquots of each step (loading, wash and eluent) were collected and analyzed on 12.5% SDS gels. Immunoblots were developed using anti-human GCase antibody and AP conjugated color development kits. Mock experiments with either non-LIMP2 proteins added or no GCases added, were used as control. The quantitations of these immunoprecipitation data were obtained from densitometry measurements of the gels. The no-LIMP-2 bars are the controls for comparison, since GCase was processed through all steps without LIMP-2 to account for any losses of GCase; About 50% of the GCase was lost during processing.
# [2] = test system: Gba1 null/null mouse fibroblasts; assay: Immunofluorescence co-localization of expressed GCase constructs (lysosome vs ER/Golgi); type: cell-based
# Text: Immunofluorescence studies (IF): Mouse Gba1 null/null were used for the host cells for all transfection experiments. pCMV-AC-GFP Mammalian cell expression vector was used for expression of various GCases that included the TKD region (amino acids 407, 408 and 409) or the DSPIIV (SEQ ID NO 15) region (amino acids 399-404). Direct-labeled first antibodies were applied for IF detection; including anti-human GCase, -Calreticulin, -calnexin, -LIMP2, and -Lamp1. Lysotracker and ER tracker (Invitrogen) were also used as indicated. Analyses were done with a Zeiss AxioVert 200M with ApoTome. Co-localization analyses to obtain Pearson Indices were conducted using a module in the Axiovision 4.8 software.
# Initial studies to localize the targeting peptide were conducted with GCase-GFP fusion constructs that had COOH-terminal deletions of GCase (FIG. 1). The constructs are designated as GCase-XX or XXX where the Xs represent the number of GCase amino acids deleted from the COOH-terminus. These constructs were transfected into and expressed in Gba1 null/null mouse fibroblasts using the CMV promoter (pCMV-AC-GFP or YFP) Immunofluorescence analyses using anti-human GCase IgG (green) and Lysotracker (Red) were used for colocalization of GCase to the lysosome (Red) or GCase (green) and Calreticulin or Calnexin (Red) for colocalization to the ER or Golgi (FIG. 2). […] Since LIMP-2 is the receptor for targeting of GCase to the lysosome, our working hypothesis was that the peptide sequence for binding of GCase to LIMP-2 was located within amino acids 347-422.
# [3] = test system: Gba1−/− cells; assay: Proportion of GCase protein in cells and media; type: cell-based, mouse
# Text: (§1) FIG. 11A-FIG. 11C: Secretion and retention of GCase with alanine variants in the TDK (FIG. 11A) or DSPIIV (SEQ ID NO 15) (FIG. 11B and FIG. 11C) sequences. FIG. 11A depicts activities in the media of Gba1−/− fibroblasts following transient transfections of each of the specified alanine substituted GCases in the TDK region. […] FIG. 11B depicts in the Left Panel: Activities in the media following transient transfections of various DSPIIV (SEQ ID NO 15) alanine substituted GCases and the % of GCase secreted. The latter was calculated as {ng GCase (in media)/[ng GCase (in media)+ng (GCase in lysates)]}×100 (also see Table 2). […] The transfections alone (Null+lipo) had no effect. […] FIG. 11C deicts in cellular lysate GCase activities from the various alanine substituted GCases in the DSPIIV (SEQ ID NO 15) sequence as indicated. […] The doubly alanine substituted GCase had little intracellular activity, i.e., nearly all the GCase was secreted into the media.
# [4] = test system: Gba1−/− fibroblasts; assay: GCase activity in media and cell lysates after transient transfection (secretion and retention); type: cell-based, mouse; settings: media; FIG. 11A, 11B
# Text: as §1
# Enzyme Assays: Cell pellets were homogenized in 0.25% Na-taurocholate and 0.25% Triton X-100. GCase activities were determined fluorometrically with 4 mM 4MU-Glc in 0.2M/0.1M citric-phosphate, pH 5.6 (18, 54)
Molecule,"binding of GCase variant to ldLIMP2, in words ([1]; listed as WT)","localization of GCase DSPIIV variants to the lysosome (Lamp1 / LIMP-2 co-localization), in words ([2]; transient transfection, FIG. 10A, listed as WT)","Total GCase ([3]; cellular + media, mean ± SD, n = 3)",% Secreted ([3]; ng GCase in media / (ng in media + ng in lysates) × 100),"Cellular GCase ([3]; total ng, mean ± SD, n = 3)","Media GCase ([3]; total ng, mean ± SD, n = 3)","binding of GCase variant to ldLIMP2, in words [1]","enzyme localized to the lysosome ([2]; TKD sequence variants, FIG. 5)","GCase activity in the media / secretion, in words [4]"
"Human WT: wild type human GCase (acid β-glucosidase, SEQ ID NO 2) expressed in Gba1−/− cells (protein, listed as Homo sapiens) ARPCIPKSFGYSSVVCVCNATYCDSFDPPTFPALGTFSRYESTRSGRRMELSMGPIQANHTGTGLLLTLQPEQKFQKVKGFGGAMTDAAALNILALSPPAQNLLLKSYFSEEGIGYNIIRVPMASCDFSIRTYTYADTPDDFQLHNFSLPEEDTKLKIPLIHRALQLAQRPVSLLASPWTSPTWLKTNGAVNGKGSLKGQPGDIYHQTWARYFVKFLDAYAEHKLQFWAVTAENEPSAGLLSGYPFQCLGFTPEHQRDFIARDLGPTLANSTHHNVRLLMLDDQRLLLPHWAKVVLTDPEAAKYVHGIAVHWYLDFLAPAKATLGETHRLFPNTMLFASEACVGSKFWEQSVRLGSWDRGMQYSHSIITNLLYHVVGWTDWNLALNPEGGPNWVRNFVDSPIIVDITKDTFYKQPMFYHLGHFSKFIPEGSQRVGLVASQKNDLDAVALMHPDGSAVVVVLNRSSKDVPLTIKDPAVGFLETISPGYSIHTYLWRRQ",nearly complete binding; also recorded: bound similarly,targeted to the lysosomes; also recorded: co-localization of GCase (FITC) with either Lamp 1 (Red) or LIMP-2,23 ± 4 ng,~0%,23 ± 4 ng,0 ng,,,
"AKD: human GCase with TKD (407-409) replaced by AKD, as named in figure legends (protein, UniProt P04062 40-536, looked up, variant T407A) Lysosomal acid …: ARPCIPKSFGYSSVVCVCNATYCDSFDPPTFPALGTFSRYESTRSGRRMELSMGPIQANHTGTGLLLTLQPEQKFQKVKGFGGAMTDAAALNILALSPPAQNLLLKSYFSEEGIGYNIIRVPMASCDFSIRTYTYADTPDDFQLHNFSLPEEDTKLKIPLIHRALQLAQRPVSLLASPWTSPTWLKTNGAVNGKGSLKGQPGDIYHQTWARYFVKFLDAYAEHKLQFWAVTAENEPSAGLLSGYPFQCLGFTPEHQRDFIARDLGPTLANSTHHNVRLLMLDDQRLLLPHWAKVVLTDPEAAKYVHGIAVHWYLDFLAPAKATLGETHRLFPNTMLFASEACVGSKFWEQSVRLGSWDRGMQYSHSIITNLLYHVVGWTDWNLALNPEGGPNWVRNFVDSPIIVDIAKDTFYKQPMFYHLGHFSKFIPEGSQRVGLVASQKNDLDAVALMHPDGSAVVVVLNRSSKDVPLTIKDPAVGFLETISPGYSIHTYLWRRQ",,,,,,,somewhat less binding,about 50%,greatest increases
